Results from US12723255B2, “Herbicide tolerance genes and methods of use thereof” (priority 2014, dated 2026).
Where two headings read alike, the source gives them in different places.

Columns and labels:
[1] = enzyme kinetic measurements with purified protein; assay type: biochemical; settings: for Km: 0-1280 uM substrate; for Vmax Fenoxaprop / Vmax Fluazifop / Vmax Haloxyfop / Vmax Quizalofop-P: relative values
Procedure: The high-throughput herbicide degradation enzyme assay was designed to assay the enzymatic activity of the engineered proteins towards various herbicides using crude bacterial extract. The engineered protein's oxygenase activity (that is, its enzymatic activity) was measured by an end point colorimetric assay utilizing detection of phenol products through measurement of absorbance at 510 nm from 4-aminoantipyrine and potassium ferricyanide. This assay was based on the assay described in Fukomori and Hausinger, Journal of Biological Chemistry (1993) 268(32):24311-24317. Enzyme reactions were assayed in 96-well plates in a total volume of 150ul that contained: 20 mM MOPS pH 6.75, 50-200 uM NH4FeSO4, 50-200 uM sodium ascorbate, 1 mM alpha-ketoglutarate (aKG), 10 ul of E. coli cell lysate containing expressed engineered protein, and substrate (either an AOPP herbicide or phenoxy acid herbicide). […] Absorbance measurements were made on a standard laboratory spectrometer. Assays were scaled as needed to enhance throughput. Standard curves were generated using purified protein or product standards.
Further protein characterization, such as Km, Vmax, and crystal structure analysis, was performed using the five engineered proteins from Table 2. For this detailed analysis, purified protein was prepared as follows: 2 ml overnight cultures of E. coli expressing a transgene encoding a given MON-HT protein were used to inoculate 500 ml of broth and grown at 37° C. for 4 hours followed by culture at 15° C. for approximately 36 hours. Then 250 ml of the 500 ml bacterial culture was pelleted by centrifugation and resuspended in 25 ml of extraction buffer (20 mM Tris, pH 7.8, 300 mM NaCl, 5 mM beta-mercaptoethanol (BME), 20 mM imidazole (Fluka/Sigma-Aldrich, St. Louis, MO), 125 units/ml of benzonase and 10K units/ml of lysozyme (Novagen, Darmstadt, Germany). The cell slurry was passed through a cell disruptor once at 20000 psi and then this cell lysate was clarified by centrifugation at 35,000×g for 20 min at 4° C. The supernatant containing the soluble His-tagged proteins was used for protein purification. For this purification, the supernatant was applied to a 1 ml HisTrap™ FF column (Nickel Sepharose) (GE Healthcare, Piscataway, NJ) using an AKTaxpress™ system (GE Healthcare, Piscataway, NJ) following the standard manufacturer's protocol. The wash buffer consisted of: 20 mM Tris pH 7.8, 300 mM NaCl, 20 mM imidazole and 5 mM BME. The composition of elution buffer was the same as the wash buffer except with 500 mM imidazole. The eluate from the nickel column was desalted on a Quick Spin Protein Sephadex G-25 fine column (Roche Applied Science, Indianapolis, IN) following the manufacturer's protocol. The eluted protein was in buffer consisting of: 20 mM Tris pH 7.8, 50 mM NaCl and 5 mM BME. Protein extract purity was assessed by SDS-PAGE analysis. Protein concentration was determined by Bradford assay using Bio-Rad Protein Assay dye reagent (Biorad, Hercules, CA, cat no 500-0006).
Purified protein for the five engineered proteins was analyzed using the enzyme assay described in this Example 1, but with four different AOPP herbicides as substrates: quizalofop-P, haloxyfop, fenoxaprop, and fluazifop. Standard curves were generated using 2,4-dichlorophenol (2,4-DCP), which was used to produce a general phenol standard curve. The amount of phenol generated in the assay by the engineered proteins was calculated based on this standard curve. The controls were purified wild-type enzyme, no enzyme, and no substrate. Enzyme kinetic measurements of the five engineered proteins was done using 0, 20, 40, 80, 160, 320, 640, or 1280 uM of quizalofop-P, haloxyfop, fenoxaprop, or fluazifop herbicides.

F1 hybrid maize plants [2] = test: plant-based growth chamber assay for temperature-sensitive quizalofop-P tolerance; assay type: in vivo
Excerpt: The finding that hybrid plants expressing the engineered proteins MON-HT55 or MON-HT51 were sensitive to quizalofop-P application when grown in field conditions of high temperature was confirmed using a plant-based assay. The plant-based assay was designed to test tolerance to quizalofop-P of F1 hybrids in the growth chamber prior to field testing. The assay was developed using F1 hybrids of plants containing maize events NK603 (U.S. Pat. No. 8,273,959)×MON89034 (U.S. Pat. No. 8,581,047) and F1 hybrids of plants containing MON-HT55×MON89034. F1 hybrid seed was germinated in a growth chamber for 1 week and then moved to one of three different growth chambers to acclimate for two days at day/night temperatures of 20° C./20° C., 28° C./20° C., and 38° C./30° C. prior to application of 2× (0.16 lb ai/acre) quizalofop-P. As expected, the plants not containing MON-HT55 at all temperature regimens were severely injured by 2× quizalofop-P application (FIG. 1B). […] (FIG. 1C). This confirmed that the plant-based assay could be used to screen proteins in plants in the growth chamber for temperature-sensitive activity.

F1 hybrid maize plants [3] = test: 2,4-D tolerance at elevated growth temperatures; assay type: in vivo; settings: 4× 2,4-D amine; day/night 38° C./30° C.; ten days after treatment
Procedure: To test for 2,4-D tolerance at elevated growth temperatures, F1 hybrid plants were produced by crossing an R1 plant containing MON-HTI, MON-HT2, MON-HT3, MON-HT4, MON-HT7, or MON-HT55 with an inbred plant containing maize event MON89034. The F1 hybrid plants were grown in a greenhouse for one week at a minimum temperature of 20° C. and a maximum temperature of 28° C. with 50 to 80% humidity. After 1 week, the plants were moved to acclimate for three days at one of two different day and night temperature regimens: (1) both day and night temperatures set at 20° C. or (2) day temperature at 38° C. and night temperature at 30° C. At the end of the acclimation period, the plants were generally at V4 growth stage and were sprayed with 4× 2,4-D amine. Ten days after treatment the plants were scored for injury using an injury scale of 0 to 100 with “0” being no injury and “100” being a dead plant. When plants were acclimated at day/night temperatures of 20° C./20° C. prior to application of 4× 2,4-D amine, F1 plants containing MON-HT1, MON-HT2, MON-HT3, MON-HT4, MON-HT7, or MON-HT55 had injury rating averages of <10%, and the control plants had injury rating averages of <20% (FIG. 4D). […]

B1: MON-HT51: engineered oxygenase protein, amino acid sequence SEQ ID NO:1 (protein)
chain: MHAALSPLSQRFERIAVQPLTGVLGAEITGVDLREPLSDSTWNEILDAFHTYQVIYFPGQAITNEQHIAFSRRFGPVDPVPLLKSIEGYPEVQMIRREANESGRVIGDDWHTDSSFLDAPPAAVVMRAIDVPEHGGDTGFLSMYTAYDALSDGLKKLISGLNVVHSATRVFGSLYQAQNRRFSNTSVKVMDVADGDRETVHPLVVTHPGSGRKGLYVNQVYCQRIEGMSEKESEPLLSFLFAHATKPEFTCRVRWKKDQVLVWDNLCTMHYAINDYHGQTRILHRTTVGGVRPAR
Km ([1]; read-out: Km Fenoxaprop): 870 µM | Km ([1]; read-out: Km Fluazifop): 4 µM | Km ([1]; read-out: Km Haloxyfop): 250 µM | Km ([1]; read-out: Km Quizalofop-P): 570 µM | Vmax Fenoxaprop [1]: 180 | Vmax Fluazifop [1]: 12 | Vmax Haloxyfop [1]: 48 | Vmax Quizalofop-P [1]: 120

B2: MON-HT55: engineered oxygenase protein, amino acid sequence SEQ ID NO:11 (protein)
chain: MHAALSPLSQRFERIAVQPLTGVLGAEITGVDLREPLDDSTWNEILDAFHTYQVIYFPGQAITNEQHIAFSRRFGPVDPVPLLKSIEGYPEVQMIRREANESGRVIGENWHTDSTFLDAPPAAVVMYAKEIPPYGGDTLFTSMYTAWETLSPTMQATIEGLNVVHSATRVFGSLYQAQNRRFSNTSVKVMDVDAGDRETVHPLVVTHPETGRKGLYVNQVYCQRIEGMSEKESEPLLSFLFAHATKPEFTCRVRWQEGDVLVWDNLCTQHYAVPDYAGKFRYLTRTTVGGVRPAR
Km ([1]; read-out: Km Fenoxaprop): 200 µM | Km ([1]; read-out: Km Fluazifop): 50 µM | Km ([1]; read-out: Km Haloxyfop): 450 µM | Km ([1]; read-out: Km Quizalofop-P): 250 µM | Vmax Fenoxaprop [1]: 450 | Vmax Fluazifop [1]: 320 | Vmax Haloxyfop [1]: 190 | Vmax Quizalofop-P [1]: 320 | tolerance to 2× quizalofop-P application (F1 hybrid maize plants [2]; acclimated at day/night 20° C./20° C. or 28° C./20° C.): good tolerance | tolerance to 2× quizalofop-P application (F1 hybrid maize plants [2]; acclimated at day/night 38° C./30° C.): significant sensitivity | injury rating averages (F1 hybrid maize plants [3]): 50%
